Measurements taken from PMC9371921, “Strand annealing and motor driven activities of SMARCAL1 and ZRANB3 are stimulated by RAD51 and the paralog complex” (Nucleic Acids Research, 2022).
Positions count from the first letter of the chain named.

What was measured:
ZRANB3 F47A = biological target: T1, ZRANB3 F47A (human, UniProt Q5FWF4 1-1079, F47A); experiment: pull-down; ZRANB3 F→A variants and RAD51 (Supplementary Figure S4); the methods tell two set-ups (MBP-RAD51 on amylose resin with purified FLAG-ZRANB3; FLAG-ZRANB3 variants from Sf9 soluble extract on anti-FLAG resin with purified RAD51) and the text does not tell which was used for which variant; 100 mM NaCl, 1 h at 4°C; conditions: both partners purified
T1 construct: human ZRANB3 with F47A; construct as m2; also called F47A substitution mutant; source: Sf9, expressed and purified similarly as the wild type
T1 sequence (looked up): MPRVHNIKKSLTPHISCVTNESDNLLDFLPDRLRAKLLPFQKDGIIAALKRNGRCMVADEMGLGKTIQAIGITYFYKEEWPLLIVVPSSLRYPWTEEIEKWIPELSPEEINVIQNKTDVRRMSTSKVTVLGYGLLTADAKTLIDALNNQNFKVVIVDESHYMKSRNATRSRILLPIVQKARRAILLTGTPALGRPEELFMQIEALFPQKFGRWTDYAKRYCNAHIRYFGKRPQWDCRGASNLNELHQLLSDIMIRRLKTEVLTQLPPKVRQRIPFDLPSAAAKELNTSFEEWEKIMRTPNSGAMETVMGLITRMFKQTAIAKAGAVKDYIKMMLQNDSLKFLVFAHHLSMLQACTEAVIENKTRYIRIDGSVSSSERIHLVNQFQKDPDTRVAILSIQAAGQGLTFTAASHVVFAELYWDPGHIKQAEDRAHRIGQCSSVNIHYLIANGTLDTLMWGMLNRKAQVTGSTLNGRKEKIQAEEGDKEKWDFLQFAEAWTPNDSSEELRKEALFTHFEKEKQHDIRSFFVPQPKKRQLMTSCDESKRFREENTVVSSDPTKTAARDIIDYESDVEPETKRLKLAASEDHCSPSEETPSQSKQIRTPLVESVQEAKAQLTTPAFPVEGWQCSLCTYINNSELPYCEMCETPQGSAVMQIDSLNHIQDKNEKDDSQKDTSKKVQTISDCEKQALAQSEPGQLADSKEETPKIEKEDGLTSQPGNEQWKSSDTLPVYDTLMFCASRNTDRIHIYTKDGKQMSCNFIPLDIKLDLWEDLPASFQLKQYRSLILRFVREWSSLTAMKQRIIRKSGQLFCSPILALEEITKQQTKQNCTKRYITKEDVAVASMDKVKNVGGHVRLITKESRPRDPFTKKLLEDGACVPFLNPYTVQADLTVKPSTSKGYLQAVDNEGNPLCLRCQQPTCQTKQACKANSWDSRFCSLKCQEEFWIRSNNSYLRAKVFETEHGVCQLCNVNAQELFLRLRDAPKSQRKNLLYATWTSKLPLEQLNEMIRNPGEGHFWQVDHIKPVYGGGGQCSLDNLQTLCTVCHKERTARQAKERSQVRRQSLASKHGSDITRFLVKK

FLAG-ZRANB3 = biological target: T2, FLAG-ZRANB3 (human, UniProt Q5FWF4 1-1079); experiment: pull-down; MBP-RAD51 (bait) from bacterial soluble extract bound to amylose resin and washed; purified FLAG-SMARCAL1, FLAG-ZRANB3 or FLAG-BCDX2 (1 μg, prey) in 150 μl IP buffer (25 mM Tris-HCl pH 7.5, 100 mM NaCl, 3 mM EDTA, 0.5 mM DTT, BSA, 10% glycerol), 1 h at 4°C; eluted with maltose; Western blot with anti-MBP and anti-FLAG; conditions: both partners purified
T2 construct: also called ZRANB3 WT
T2 sequence (looked up): T1 sequence (looked up) with A47F

B1: MBP-RAD51 (natural protein, human, UniProt Q06609 1-339, looked up)
chain: MAMQMQLEANADTSVEEESFGPQPISRLEQCGINANDVKKLEEAGFHTVEAVAYAPKKELINIKGISEAKADKILAEAAKLVPMGFTTATEFHQRRSEIIQITTGSKELDKLLQGGIETGSITEMFGEFRTGKTQICHTLAVTCQLPIDRGGGEGKAMYIDTEGTFRPERLLAVAERYGLSGSDVLDNVAYARAFNTDHQTQLLYQASAMMVESRYALLIVDSATALYRTDYSGRGELSARQMHLARFLRMLLRLADEFGVAVVITNQVVAQVDGAAMFAADPKKPIGGNIIAHASTTRLYLRKGRGETRICKIYDSPCLPEAEAMFAINADGVGDAKD
notes: In the pull-downs the MBP tag was kept; the RAD51 of the DNA annealing assays was the same construct with the MBP cut off by PreScission protease and purified on HiTrap Q; not shown: MBP, N-terminal, kept
ZRANB3 F47A
  binding result: binds
FLAG-ZRANB3
  binding result: binds
